Results reported in article PMC12635182.

Target: aSyn-VC (alpha-synuclein fused in front of the C-terminal fragment of Venus) (UniProt P37840)

Substance: VN-Sph1 K527A (from UniProt Q9Y6H5 1-919) (natural protein)
- cells with fewer VN-Sph1 + aSyn-VC inclusions than with WT Sph1 (HEK 293, counted by microscopy): 40%
